Assay results published in article PMC9018508.

Target: CD40L (UniProt P29965)
Assay: SPR

UniProt P29965, sequence (P29965 116-261): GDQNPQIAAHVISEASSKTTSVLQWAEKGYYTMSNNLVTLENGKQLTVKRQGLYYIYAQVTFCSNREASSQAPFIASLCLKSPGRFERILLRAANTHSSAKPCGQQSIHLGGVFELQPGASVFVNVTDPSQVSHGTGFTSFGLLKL

- Kd: 41.6 nM
Substance: 5c8Ile^L98 → 7-HCAA Fab
